From publication doi:10.1101/2025.03.13.643145 (bioRxiv, 2025)
Positions of bridges follow the written chain, without caps; N, C: chain ends. No end group written: not given here.

Assays:
Experiment in all cases: ELISA
[1] = target: T1, CD81 EC2 domain (extracellular-2 domain of tetraspanin CD81, residues 113-201) (UniProt P60033 113-201)
T1 sequence: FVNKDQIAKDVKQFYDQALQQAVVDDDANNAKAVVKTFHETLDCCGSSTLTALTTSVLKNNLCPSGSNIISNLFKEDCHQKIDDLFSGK

[2] = target: T2, CD9 EC2 domain (extracellular-2 domain of tetraspanin CD9, residues 113-192) (UniProt P21926 113-192)
T2 sequence: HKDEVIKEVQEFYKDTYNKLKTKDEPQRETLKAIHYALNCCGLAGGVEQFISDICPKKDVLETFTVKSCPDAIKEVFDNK

[3] = target: T3, CD151 EC2 domain (extracellular-2 domain of tetraspanin CD151, residues 113-221) (UniProt P48509 113-221)
T3 sequence: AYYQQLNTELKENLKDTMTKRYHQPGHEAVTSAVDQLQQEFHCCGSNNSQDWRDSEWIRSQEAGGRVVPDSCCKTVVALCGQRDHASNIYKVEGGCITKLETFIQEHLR

Measured: binding result

CRLAGIVQPNDGQSHVGSDNHYSASTTMC (disulfide 1-29; also: GST fusion protein) [disulfide-linked cyclic site 2 peptide of integrin β3 (GST fusion protein)]
binds: all assays above
